Results reported in patent publication US20140087995A1 (published 2014).
Numbered stars: 1 amine (or outer) side, 2 acyl side, 3 side chain; on linkers, the order of the positions; unused ones are H or OH. Bridge positions count the residues as written; N and C are the ends. Side chains are listed from the residue outwards. Ends that are not written are not given here. * marks the point of attachment. C20 diacid = O=C(O)CCCCCCCCCCCCCCCCCCC(=O)*; γGlu = O=C(O)[C@H](CCC(=O)[*:2])N[*:1]

Key:
rat calcitonin receptor = target: T1, rat calcitonin receptor (rat, UniProt P32214 25-516); assay: SPA competition with 125I-calcitonin, membranes of BHK cells with rat CTR (Assay VIII)
T1 construct: whole, on cells; Used as membranes prepared from BHK tk'ts 13 cells transiently transfected with the rat calcitonin receptor (Assay VIII); also called rCTR; rat calcitonin (a) receptor
T1 sequence (looked up): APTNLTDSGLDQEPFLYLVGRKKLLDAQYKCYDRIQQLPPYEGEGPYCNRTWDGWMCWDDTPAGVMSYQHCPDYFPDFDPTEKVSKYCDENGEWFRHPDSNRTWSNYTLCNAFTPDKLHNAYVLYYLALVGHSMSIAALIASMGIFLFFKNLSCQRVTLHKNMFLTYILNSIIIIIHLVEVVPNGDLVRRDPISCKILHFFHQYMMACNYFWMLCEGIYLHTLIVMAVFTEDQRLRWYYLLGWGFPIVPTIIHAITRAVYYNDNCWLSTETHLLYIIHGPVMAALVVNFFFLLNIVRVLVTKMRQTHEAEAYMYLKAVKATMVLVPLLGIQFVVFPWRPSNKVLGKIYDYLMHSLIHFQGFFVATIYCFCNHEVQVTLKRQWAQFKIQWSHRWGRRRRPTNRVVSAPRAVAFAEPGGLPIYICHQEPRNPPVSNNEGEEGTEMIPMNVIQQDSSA

[1] = target: T2, rat amylin receptor (rat calcitonin receptor + rat RAMP 3) (rat, UniProt P32214 25-516; Q9JJ73 23-147); assay: SPA competition with 125I-rat amylin, membranes of BHK cells with rat CTR + rat RAMP3 (Assay VI)
T2 construct: whole, on cells; Used as membranes prepared from BHK tk'ts 13 cells transiently transfected with rat calcitonin receptor and rat RAMP 3 (Assay VI); also called rAmylin-R; rat amylin 3(a) receptor
T2 sequence (looked up) 1: T1 sequence (looked up)
T2 sequence (looked up) 2: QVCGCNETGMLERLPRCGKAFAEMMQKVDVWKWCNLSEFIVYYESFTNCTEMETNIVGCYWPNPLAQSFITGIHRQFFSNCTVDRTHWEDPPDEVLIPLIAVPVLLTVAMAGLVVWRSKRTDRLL
Procedure: The binding assay was performed using scintillation proximity assay (SPA) beads (RPNQ0001) from PerkinElmer and cell membranes from the Amylin 3(a)/CRE-luc cells (as described in Assay (II)) were used. Membranes were prepared in the following way; the cells were rinsed with PBS and incubated with Versene for approximately 5 min before harvesting. The cells were flushed with PBS and the cell-suspension was centrifuged for 5 min at 1000 rpm. Cells were homogenized (ultrathurrax) in a buffer containing 20 mM Na-HEPES and 10 mM EDTA (pH 7.4) and centrifuged at 20.000 rpm for 15 min. The resulting pellet was resuspended, homogenized and centrifuged (20.000 rpm, 15 min) in a buffer containing 20 mM Na-HEPES and 0.1 mM EDTA (pH 7.4, buffer 2). The resulting pellet was resuspended in buffer 2 and protein concentration was measured (BCA protein Assay, Pierce). The homogenate was kept cold during the whole procedure. The membranes were kept at −80° C. until use. The assay was performed in a 384 well Optiplate (PerkinElmer) in a total volume of 40 ul. Membranes were mixed with SPA beads. Final concentration of membranes 35 ng/μL final and SPA beads was 0.05 mg/well. Test-compounds were dissolved in DMSO and further diluted in assay buffer (50 mM Hepes, pH 7.4, 1 mM CaCl2, 5 mM MgCl₂, 0.1% OA and 0.02% Tween20). […] The final mixture was incubated with shaking at 400 rpm for 120 min at 25° C. prior to centrifugation (1500 rpm, 10 min). Samples were analyzed on TopCounter™ (Packard). The IC₅₀ was calculated using (one site binding competition analysis) GraphPad Prism5 as a measure of receptor affinity.
Cells were grown in DMEM with 10% FBS and 1% Pen/Strep. Approximately 48 hours after transfection, the cells were harvested and membranes were prepared.

IC50 (rat calcitonin receptor): 159 nM
IC50 [1]: 0.335 nM
B1: N^ε1-[(4S)-4-carboxy-4-[[(4S)-4-carboxy-4-(19-carboxynonadecanoylamino)butanoyl]amino]butanoyl]-[Asp14,Arg17,Pro21,Pro27,Arg35]-h-amylin (peptide)
peptide: K([γGlu-γGlu-C20 diacid])CNTATCATQRLADFLRHSSPNFGAIPSSTNVGSRTY-NH2
modifications: disulfide 2-7; N-terminus assumed
SMILES: CC[C@H](C)[C@H](NC(=O)[C@H](C)NC(=O)CNC(=O)[C@H](Cc1ccccc1)NC(=O)[C@H](CC(N)=O)NC(=O)[C@@H]1CCCN1C(=O)[C@H](CO)NC(=O)[C@H](CO)NC(=O)[C@H](Cc1c[nH]cn1)NC(=O)[C@H](CCCNC(=N)N)NC(=O)[C@H](CC(C)C)NC(=O)[C@H](Cc1ccccc1)NC(=O)[C@H](CC(=O)O)NC(=O)[C@H](C)NC(=O)[C@H](CC(C)C)NC(=O)[C@H](CCCNC(=N)N)NC(=O)[C@H](CCC(N)=O)NC(=O)[C@@H](NC(=O)[C@H](C)NC(=O)[C@@H]1CSSC[C@H](NC(=O)[C@@H](N)CCCCNC(=O)CC[C@H](NC(=O)CC[C@H](NC(=O)CCCCCCCCCCCCCCCCCCC(=O)O)C(=O)O)C(=O)O)C(=O)N[C@@H](CC(N)=O)C(=O)N[C@@H]([C@@H](C)O)C(=O)N[C@@H](C)C(=O)N[C@@H]([C@@H](C)O)C(=O)N1)[C@@H](C)O)C(=O)N1CCC[C@H]1C(=O)N[C@@H](CO)C(=O)N[C@@H](CO)C(=O)N[C@H](C(=O)N[C@@H](CC(N)=O)C(=O)N[C@H](C(=O)NCC(=O)N[C@@H](CO)C(=O)N[C@@H](CCCNC(=N)N)C(=O)N[C@H](C(=O)N[C@@H](Cc1ccc(O)cc1)C(N)=O)[C@@H](C)O)C(C)C)[C@@H](C)O
notes: Analogue of human amylin; also called compound 52
